Reference: IntAct's records for PubMed 19829382

B1: Scaffold protein ILK (Mus musculus), O55222 (parent)
chain: MDDIFTQCREGNAVAVRLWLDNTENDLNQGDDHGFSPLHWACREGRSAVVEMLIMRGARINVMNRGDDTPLHLAASHGHRDIVQKLLQYKADINAVNEHGNVPLHYACFWGQDQVAEDLVANGALVSICNKYGEMPVDKAKAPLRELLRERAEKMGQNLNRIPYKDTFWKGTTRTRPRNGTLNKHSGIDFKQLNFLAKLNENHSGELWKGRWQGNDIVVKVLKVRDWSTRKSRDFNEECPRLRIFSHPNVLPVLGACQAPPAPHPTLITHWMPYGSLYNVLHEGTNFVVDQSQAVKFALDMARGMAFLHTLEPLIPRHALNSRSVMIDEDMTARISMADVKFSFQCPGRMYAPAWVAPEALQKKPEDTNRRSADMWSFAVLLWELVTREVPFADLSNMEIGMKVALEGLRPTIPPGISPHVCKLMKICMNEDPAKRPKFDMIVPILEKMQDK
partner: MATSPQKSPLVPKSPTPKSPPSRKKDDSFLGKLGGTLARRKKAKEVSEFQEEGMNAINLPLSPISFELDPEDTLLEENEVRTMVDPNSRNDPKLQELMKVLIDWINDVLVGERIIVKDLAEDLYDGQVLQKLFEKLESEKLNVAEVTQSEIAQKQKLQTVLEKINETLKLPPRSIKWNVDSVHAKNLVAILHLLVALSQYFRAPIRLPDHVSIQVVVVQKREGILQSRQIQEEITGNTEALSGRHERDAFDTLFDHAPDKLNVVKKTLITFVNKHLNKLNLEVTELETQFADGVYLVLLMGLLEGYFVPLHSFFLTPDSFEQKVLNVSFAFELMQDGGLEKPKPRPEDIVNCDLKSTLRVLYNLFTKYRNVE

Variants of: B1
Details: with parva_mouse Parva

Row | effect of a mutation on the interaction | Variant
1 | decreasing interaction strength | K220M
2 | decreasing interaction strength | K220A
